Ends that are not written are not given here.
Key:
Format in all cases: binding
integrin αVβ3 [1] = biological target: T1, integrin αVβ3 (Homo sapiens, UniProt P05106+P06756); assay: Saturation assay with radiolabeled echistatin, αVβ3; settings: increasing radiolabeled echistatin, integrin coated at 1.8 µg/mL
T1 construct: purchased R&D System; Minneapolis, MN, USA
Description: (§1) To determine if VTN(381–397 a.a.) could interact with integrins, we investigated its ability to compete with radiolabeled echistatin for binding to five different integrin complexes: α5β1, αVβ1, αVβ3, αVβ5 and αVβ6. We also tested the binding affinity of the whole VTN protein and another VTN fragment, VTN(365–381 a.a), as previously described by Maile et al.,[33]. First, the binding affinity of echistatin to the five integrins was measured by determining the equilibrium dissociation constant (KD). KD was evaluated by saturation assays involving addition of increasing concentrations of radiolabeled echistatin to a constant concentration of integrins (coated at 1.8 µg/mL). […] Subsequently, competitive experiments were performed using increasing concentrations of ligand and a fixed amount of radiolabeled echistatin. The fixed concentration of radiolabeled echistatin was determined according to its KD value. For each ligand concentration, the relative binding of ^125ISIB-echistatin to coated integrins was then measured, and values were plotted versus the logarithm of ligand concentration.

integrin αVβ6 [2] = biological target: T2, integrin αVβ6 (Homo sapiens, UniProt P06756+P18564); assay: Competition study, 125ISIB-echistatin vs ligands on coated αVβ6; settings: competition with 20 nM 125ISIB-echistatin, recombinant human αVβ6 coated at 1.8 µg/mL, IBB pH 7.4 / 0.5% BSA, 2 h room temperature, duplicate wells, gamma counter, five-parameter logistic
T2 construct: purchased R&D System; Minneapolis, MN, USA
Description: (§2) A competition study was performed to investigate the interaction of VTN(381–397 a.a.) with five different integrins. Radiolabeled echistatin, a disintegrin known to bind integrin receptors, was used as a tracer for the binding assays. Lyophilized echistatin was provided by Bachem (Bubendorf, Switzerland) and radiolabeled by conjugation with a radioiodinated benzoate (^125ISIB) to the epsilon amino group of lysine side chains. For the five integrins, α5β1, αVβ1, αVβ3, αVβ5, and αVβ6 (R&D System; Minneapolis, MN, USA), a solution at 1.8 µg/mL was prepared with integrin-binding buffer (IBB; 20 mM Tris pH 7.4, 150 mM NaCl, 2 mM CaCl2, 1 mM MgCl2, 1 mM MnCl2). Nunc Maxisorp Module plates were coated overnight at 4 °C with integrin complex at 1.8 µg/mL. After the wells were washed with sample buffer (IBB, 0.5% BSA), blocking solution (IBB, 2% BSA) was added, and the microplate was incubated for 2 h at room temperature. The wells were then washed three times with IBB/0.5% BSA. Then, ^125ISIB-echistatin was diluted in sample buffer to fixed concentrations of 4, 4, 8, 8, and 20 nM for α5β1, αVβ1, αVβ3, αVβ5, and αVβ6 competition studies, respectively. The ^125ISIB-echistatin was mixed with sample buffer at a ratio of 1:1 (total binding = control well) or with increasing concentrations of ligands (Supplementary information SI1) [complete VTN, VTN(381–397 a.a.), VTN(365–381 a.a.)] at a ratio 1:1 and added to wells in duplicate. We used 1,4,7-triazacyclononane-1,4,7-triacetic acid (NOTA) as a negative control. […] After rinsing, bound radioactivity was quantified using a gamma counter. The percentage of relative binding of radiolabeled echistatin was calculated as follows: radioactivity in the test well*100/radioactivity in the reference well. […] For comparison of the potency of ligands in inhibiting bound ^125ISIB-echistatin for different integrin complexes, the half-maximal inhibitory concentration (IC50) was calculated. The IC50 value was determined by constructing a dose–response curve and examining the effect of different concentrations of ligands on ^125ISIB-echistatin binding. […]
To determine if VTN(381–397 a.a.) could interact with integrins, we investigated its ability to compete with radiolabeled echistatin for binding to five different integrin complexes: α5β1, αVβ1, αVβ3, αVβ5 and αVβ6. […] First, the binding affinity of echistatin to the five integrins was measured by determining the equilibrium dissociation constant (KD). […] The fixed concentration of radiolabeled echistatin was determined according to its KD value. For each ligand concentration, the relative binding of ^125ISIB-echistatin to coated integrins was then measured, and values were plotted versus the logarithm of ligand concentration.

integrin αVβ5 [3] = biological target: T3, integrin αVβ5 (Homo sapiens, UniProt P06756+P18084); assay: Competition study, 125ISIB-echistatin vs ligands on coated αVβ5; settings: competition with 8 nM 125ISIB-echistatin, recombinant human αVβ5 coated at 1.8 µg/mL, IBB pH 7.4 / 0.5% BSA, 2 h room temperature, duplicate wells
T3 construct: purchased R&D System; Minneapolis, MN, USA
Description: as §2, with “µg/mL.” for “µg/mL. After the wells were washed with sample buffer (IBB, 0.5% BSA), blocking solution (IBB, 2% BSA) was added, and the microplate was incubated for 2 h at room temperature. The wells were then washed three times with IBB/0.5% BSA. Then, ^125ISIB-echistatin was diluted in sample buffer to fixed concentrations of 4, 4, 8, 8, and 20 nM for α5β1, αVβ1, αVβ3, αVβ5, and αVβ6 competition studies, respectively. The ^125ISIB-echistatin was mixed with sample buffer at a ratio of 1:1 (total binding = control well) or with increasing concentrations of ligands (Supplementary information SI1) [complete VTN, VTN(381–397 a.a.), VTN(365–381 a.a.)] at a ratio 1:1 and added to wells in duplicate. We used 1,4,7-triazacyclononane-1,4,7-triacetic acid (NOTA) as a negative control.”

integrin αVβ1 [4] = biological target: T4, integrin αVβ1 (Homo sapiens, UniProt P05556+P06756); assay: Saturation assay with radiolabeled echistatin, αVβ1; settings: increasing radiolabeled echistatin, integrin coated at 1.8 µg/mL
T4 construct: purchased R&D System; Minneapolis, MN, USA
Description: as §1

integrin αVβ3 [5] = biological target: T1, integrin αVβ3; assay: Competition study, 125ISIB-echistatin vs ligands on coated αVβ3; settings: competition with 8 nM 125ISIB-echistatin, recombinant human αVβ3 coated at 1.8 µg/mL, IBB pH 7.4 / 0.5% BSA, 2 h room temperature, duplicate wells
Description: as §2, with “µg/mL.” for “µg/mL. After the wells were washed with sample buffer (IBB, 0.5% BSA), blocking solution (IBB, 2% BSA) was added, and the microplate was incubated for 2 h at room temperature. The wells were then washed three times with IBB/0.5% BSA. Then, ^125ISIB-echistatin was diluted in sample buffer to fixed concentrations of 4, 4, 8, 8, and 20 nM for α5β1, αVβ1, αVβ3, αVβ5, and αVβ6 competition studies, respectively. The ^125ISIB-echistatin was mixed with sample buffer at a ratio of 1:1 (total binding = control well) or with increasing concentrations of ligands (Supplementary information SI1) [complete VTN, VTN(381–397 a.a.), VTN(365–381 a.a.)] at a ratio 1:1 and added to wells in duplicate. We used 1,4,7-triazacyclononane-1,4,7-triacetic acid (NOTA) as a negative control.”

integrin αVβ5 [6] = biological target: T3, integrin αVβ5; assay: Saturation assay with radiolabeled echistatin, αVβ5; settings: increasing radiolabeled echistatin, integrin coated at 1.8 µg/mL
Description: as §1

integrin α5β1 [7] = biological target: T5, integrin α5β1 (Homo sapiens, UniProt P05556+P08648); assay: Competition study, 125ISIB-echistatin vs ligands on coated α5β1; settings: competition with 4 nM 125ISIB-echistatin, recombinant human α5β1 coated at 1.8 µg/mL, IBB pH 7.4 / 0.5% BSA, 2 h room temperature, duplicate wells
T5 construct: purchased R&D System; Minneapolis, MN, USA
Description: as §2, with “µg/mL.” for “µg/mL. After the wells were washed with sample buffer (IBB, 0.5% BSA), blocking solution (IBB, 2% BSA) was added, and the microplate was incubated for 2 h at room temperature. The wells were then washed three times with IBB/0.5% BSA. Then, ^125ISIB-echistatin was diluted in sample buffer to fixed concentrations of 4, 4, 8, 8, and 20 nM for α5β1, αVβ1, αVβ3, αVβ5, and αVβ6 competition studies, respectively. The ^125ISIB-echistatin was mixed with sample buffer at a ratio of 1:1 (total binding = control well) or with increasing concentrations of ligands (Supplementary information SI1) [complete VTN, VTN(381–397 a.a.), VTN(365–381 a.a.)] at a ratio 1:1 and added to wells in duplicate. We used 1,4,7-triazacyclononane-1,4,7-triacetic acid (NOTA) as a negative control.”

integrin αVβ6 [8] = biological target: T2, integrin αVβ6; assay: Saturation assay with radiolabeled echistatin, αVβ6; settings: increasing radiolabeled echistatin, integrin coated at 1.8 µg/mL
Description: as §1

integrin αVβ1 [9] = biological target: T4, integrin αVβ1; assay: Competition study, 125ISIB-echistatin vs ligands on coated αVβ1; settings: competition with 4 nM 125ISIB-echistatin, recombinant human αVβ1 coated at 1.8 µg/mL, IBB pH 7.4 / 0.5% BSA, 2 h room temperature, duplicate wells
Description: as §2, with “µg/mL.” for “µg/mL. After the wells were washed with sample buffer (IBB, 0.5% BSA), blocking solution (IBB, 2% BSA) was added, and the microplate was incubated for 2 h at room temperature. The wells were then washed three times with IBB/0.5% BSA. Then, ^125ISIB-echistatin was diluted in sample buffer to fixed concentrations of 4, 4, 8, 8, and 20 nM for α5β1, αVβ1, αVβ3, αVβ5, and αVβ6 competition studies, respectively. The ^125ISIB-echistatin was mixed with sample buffer at a ratio of 1:1 (total binding = control well) or with increasing concentrations of ligands (Supplementary information SI1) [complete VTN, VTN(381–397 a.a.), VTN(365–381 a.a.)] at a ratio 1:1 and added to wells in duplicate. We used 1,4,7-triazacyclononane-1,4,7-triacetic acid (NOTA) as a negative control.”

integrin α5β1 [10] = biological target: T5, integrin α5β1; assay: Saturation assay with radiolabeled echistatin, α5β1; settings: increasing radiolabeled echistatin, integrin coated at 1.8 µg/mL
Description: as §1

T5 sequence (P08648 42-995 limits assumed): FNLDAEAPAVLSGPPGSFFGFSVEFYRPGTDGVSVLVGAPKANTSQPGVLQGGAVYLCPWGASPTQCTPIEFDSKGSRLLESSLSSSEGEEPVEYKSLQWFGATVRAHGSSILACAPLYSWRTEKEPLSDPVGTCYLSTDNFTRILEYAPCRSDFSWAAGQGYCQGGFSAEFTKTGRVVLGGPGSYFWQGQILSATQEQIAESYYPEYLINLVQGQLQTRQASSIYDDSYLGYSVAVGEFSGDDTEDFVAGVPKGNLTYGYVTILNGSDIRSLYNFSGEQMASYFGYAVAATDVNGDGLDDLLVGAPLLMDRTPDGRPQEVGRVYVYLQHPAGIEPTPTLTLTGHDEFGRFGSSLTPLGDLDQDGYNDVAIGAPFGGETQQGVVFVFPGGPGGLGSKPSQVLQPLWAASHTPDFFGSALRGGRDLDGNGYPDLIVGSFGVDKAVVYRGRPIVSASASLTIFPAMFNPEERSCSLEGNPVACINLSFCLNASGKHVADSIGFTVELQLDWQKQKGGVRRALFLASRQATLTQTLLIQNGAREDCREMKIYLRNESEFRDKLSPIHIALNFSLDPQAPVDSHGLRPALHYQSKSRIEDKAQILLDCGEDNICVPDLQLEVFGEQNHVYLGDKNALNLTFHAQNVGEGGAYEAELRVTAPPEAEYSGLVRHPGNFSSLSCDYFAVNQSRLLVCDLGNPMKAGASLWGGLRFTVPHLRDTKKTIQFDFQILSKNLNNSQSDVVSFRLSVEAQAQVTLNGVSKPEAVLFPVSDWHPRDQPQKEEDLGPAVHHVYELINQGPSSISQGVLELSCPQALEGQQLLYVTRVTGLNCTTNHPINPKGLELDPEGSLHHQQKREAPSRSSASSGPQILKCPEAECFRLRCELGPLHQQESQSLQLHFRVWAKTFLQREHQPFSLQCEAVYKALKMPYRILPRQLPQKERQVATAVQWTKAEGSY
T5 sequence (P05556 21-728 limits assumed): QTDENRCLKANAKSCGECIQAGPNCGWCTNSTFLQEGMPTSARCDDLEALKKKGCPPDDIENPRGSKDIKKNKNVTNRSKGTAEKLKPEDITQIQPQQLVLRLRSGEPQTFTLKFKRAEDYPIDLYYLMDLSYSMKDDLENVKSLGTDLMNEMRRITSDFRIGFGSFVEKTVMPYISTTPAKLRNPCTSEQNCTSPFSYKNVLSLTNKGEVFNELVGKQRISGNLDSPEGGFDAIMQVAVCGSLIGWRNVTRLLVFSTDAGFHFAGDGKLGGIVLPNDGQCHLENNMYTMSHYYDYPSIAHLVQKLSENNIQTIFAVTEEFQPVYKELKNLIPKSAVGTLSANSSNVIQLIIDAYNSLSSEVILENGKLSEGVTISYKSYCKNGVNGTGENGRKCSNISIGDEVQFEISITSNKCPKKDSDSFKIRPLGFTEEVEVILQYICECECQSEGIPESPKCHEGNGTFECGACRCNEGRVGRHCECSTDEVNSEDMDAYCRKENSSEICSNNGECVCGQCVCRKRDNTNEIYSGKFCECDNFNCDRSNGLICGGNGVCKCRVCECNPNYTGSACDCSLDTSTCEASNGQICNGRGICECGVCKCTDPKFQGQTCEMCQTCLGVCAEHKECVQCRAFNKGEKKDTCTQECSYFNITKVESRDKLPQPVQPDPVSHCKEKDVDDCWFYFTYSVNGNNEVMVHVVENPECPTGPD
T2 sequence (P06756 31-992 limits assumed): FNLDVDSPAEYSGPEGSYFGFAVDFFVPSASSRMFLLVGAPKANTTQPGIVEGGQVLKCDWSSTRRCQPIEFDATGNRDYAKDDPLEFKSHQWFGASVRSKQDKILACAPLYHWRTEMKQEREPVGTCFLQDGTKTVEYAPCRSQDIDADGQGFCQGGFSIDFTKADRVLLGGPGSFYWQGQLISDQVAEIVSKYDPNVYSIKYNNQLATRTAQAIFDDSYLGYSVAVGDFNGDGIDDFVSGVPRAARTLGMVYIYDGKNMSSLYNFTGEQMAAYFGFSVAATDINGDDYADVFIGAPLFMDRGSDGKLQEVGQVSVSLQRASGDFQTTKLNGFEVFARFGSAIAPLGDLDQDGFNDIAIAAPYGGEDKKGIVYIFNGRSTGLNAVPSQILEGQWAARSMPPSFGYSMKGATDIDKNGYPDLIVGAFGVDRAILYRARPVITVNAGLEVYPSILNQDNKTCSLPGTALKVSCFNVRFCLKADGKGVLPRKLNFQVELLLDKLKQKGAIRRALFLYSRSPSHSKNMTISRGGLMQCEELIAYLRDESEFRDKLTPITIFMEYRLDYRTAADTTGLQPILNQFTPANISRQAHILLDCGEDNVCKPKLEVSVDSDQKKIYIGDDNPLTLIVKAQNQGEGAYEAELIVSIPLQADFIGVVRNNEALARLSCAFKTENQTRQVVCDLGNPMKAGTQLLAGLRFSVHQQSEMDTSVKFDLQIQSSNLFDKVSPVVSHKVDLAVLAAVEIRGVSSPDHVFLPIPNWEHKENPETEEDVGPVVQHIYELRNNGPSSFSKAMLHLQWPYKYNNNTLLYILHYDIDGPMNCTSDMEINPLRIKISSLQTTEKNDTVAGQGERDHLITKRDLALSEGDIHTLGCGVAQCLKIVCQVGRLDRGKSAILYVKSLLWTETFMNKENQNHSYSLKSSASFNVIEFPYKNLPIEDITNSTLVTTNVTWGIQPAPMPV
T2 sequence (P18564 22-707 limits assumed): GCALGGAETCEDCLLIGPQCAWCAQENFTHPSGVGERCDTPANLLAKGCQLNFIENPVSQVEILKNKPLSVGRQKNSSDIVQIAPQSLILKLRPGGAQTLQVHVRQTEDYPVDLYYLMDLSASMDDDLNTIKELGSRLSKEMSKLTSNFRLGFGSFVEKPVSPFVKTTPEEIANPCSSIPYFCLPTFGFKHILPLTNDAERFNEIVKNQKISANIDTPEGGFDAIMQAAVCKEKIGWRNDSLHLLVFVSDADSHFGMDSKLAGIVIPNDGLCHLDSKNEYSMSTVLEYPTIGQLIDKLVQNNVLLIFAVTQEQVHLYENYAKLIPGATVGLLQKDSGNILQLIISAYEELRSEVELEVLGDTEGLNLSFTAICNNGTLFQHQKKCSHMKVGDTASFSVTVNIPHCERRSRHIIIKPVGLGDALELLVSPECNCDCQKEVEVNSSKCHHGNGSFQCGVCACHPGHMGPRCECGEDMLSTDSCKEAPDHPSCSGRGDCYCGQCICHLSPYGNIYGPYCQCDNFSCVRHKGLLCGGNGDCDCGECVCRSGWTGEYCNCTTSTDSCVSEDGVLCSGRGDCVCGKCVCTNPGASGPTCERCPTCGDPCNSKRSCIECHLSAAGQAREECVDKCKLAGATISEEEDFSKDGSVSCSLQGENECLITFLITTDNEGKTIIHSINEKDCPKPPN
T3 sequence (P06756 31-992 limits assumed): as the sequence (P06756 31-992 limits assumed) above
T3 sequence (P18084 24-719 limits assumed): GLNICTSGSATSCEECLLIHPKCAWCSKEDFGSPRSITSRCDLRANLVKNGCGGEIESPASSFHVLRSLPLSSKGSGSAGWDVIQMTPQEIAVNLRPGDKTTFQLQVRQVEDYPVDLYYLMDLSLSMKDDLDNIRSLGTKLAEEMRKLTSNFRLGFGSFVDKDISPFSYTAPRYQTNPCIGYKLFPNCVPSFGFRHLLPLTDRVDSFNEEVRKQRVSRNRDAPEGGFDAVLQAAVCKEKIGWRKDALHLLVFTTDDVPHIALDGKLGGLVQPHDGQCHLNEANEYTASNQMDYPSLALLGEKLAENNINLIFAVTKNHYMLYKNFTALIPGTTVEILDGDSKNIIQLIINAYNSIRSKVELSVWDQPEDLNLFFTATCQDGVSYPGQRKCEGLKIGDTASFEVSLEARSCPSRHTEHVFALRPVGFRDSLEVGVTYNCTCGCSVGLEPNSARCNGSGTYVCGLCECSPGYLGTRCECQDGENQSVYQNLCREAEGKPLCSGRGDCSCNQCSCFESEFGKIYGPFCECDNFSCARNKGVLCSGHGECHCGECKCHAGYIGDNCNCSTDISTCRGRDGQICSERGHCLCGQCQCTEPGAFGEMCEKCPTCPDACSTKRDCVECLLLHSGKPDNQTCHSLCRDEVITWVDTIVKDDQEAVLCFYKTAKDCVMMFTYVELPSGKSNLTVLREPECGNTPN
T1 sequence (P06756 31-992 limits assumed): as the sequence (P06756 31-992 limits assumed) above
T1 sequence (P05106 27-718 limits assumed): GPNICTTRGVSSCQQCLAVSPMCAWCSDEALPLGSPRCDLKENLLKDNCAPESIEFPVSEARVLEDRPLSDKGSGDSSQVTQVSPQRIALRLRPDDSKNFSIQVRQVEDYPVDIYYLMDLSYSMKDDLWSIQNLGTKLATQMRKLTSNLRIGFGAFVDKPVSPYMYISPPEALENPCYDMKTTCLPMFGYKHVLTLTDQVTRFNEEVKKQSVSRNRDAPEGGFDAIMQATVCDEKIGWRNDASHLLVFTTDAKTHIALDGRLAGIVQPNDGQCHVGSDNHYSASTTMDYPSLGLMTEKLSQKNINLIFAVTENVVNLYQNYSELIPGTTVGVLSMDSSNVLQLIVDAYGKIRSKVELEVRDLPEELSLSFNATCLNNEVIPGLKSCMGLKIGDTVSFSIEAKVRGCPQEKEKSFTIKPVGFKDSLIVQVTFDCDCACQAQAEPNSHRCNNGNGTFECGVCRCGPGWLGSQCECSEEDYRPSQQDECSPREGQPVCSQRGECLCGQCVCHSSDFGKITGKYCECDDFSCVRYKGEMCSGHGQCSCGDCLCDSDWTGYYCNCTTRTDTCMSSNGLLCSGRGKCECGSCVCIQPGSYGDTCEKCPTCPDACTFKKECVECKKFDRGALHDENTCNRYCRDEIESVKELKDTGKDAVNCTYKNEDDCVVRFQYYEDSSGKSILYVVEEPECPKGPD
T4 sequence (P06756 31-992 limits assumed): as the sequence (P06756 31-992 limits assumed) above
T4 sequence (P05556 21-728 limits assumed): as the sequence (P05556 21-728 limits assumed) above

Question: What does the source list for “Echistatin (QCESGPCCRNCKFLKEGTICKRARGDDMDDYCNGKTCDCPRNPHKGPAT; disulfide (positions not given here); not fully specified (bridges); also: Lys ε-amino groups conjugated with 125I-iodobenzoate (125ISIB), positions not given here) [tracer radiolabeled with radioiodinated benzoate (125ISIB) at lysine side chains]”?
Answer: Kd (integrin αVβ3 [1]): 3.17 nM; IC50 (integrin αVβ6 [2]): 14 nM; IC50 (integrin αVβ5 [3]): 4 nM; Kd (integrin αVβ1 [4]): 0.99 nM; IC50 (integrin αVβ3 [5]): 3.7 nM; Kd (integrin αVβ5 [6]): 3.46 nM; IC50 (integrin α5β1 [7]): 2 nM; Kd (integrin αVβ6 [8]): 17.1 nM; IC50 (integrin αVβ1 [9]): 1.5 nM; Kd (integrin α5β1 [10]): 1.48 nM

Source: article PMC8080589, “Modulation of αVβ6 integrin in osteoarthritis-related synovitis and the interaction with VTN(381–397 a.a.) competing for TGF-β1 activation” (Experimental & Molecular Medicine, 2021)
